Laboratory results reported in publication PMC2655723.

Key:
[1] = target: HIV-1 AD8 envelope glycoproteins (HIV-1, strain AD8)
[2] = target: Full-length HIV-1 YU2 envelope glycoproteins (HIV-1, strain YU2) (UniProt P35961)

Work on “Four-domain soluble CD4 (domain or fragment)” yielded an IC50 of sCD4 for inhibition of infection of CD4+CCR5+ Cf2Th cells by recombinant HIV-1(AD8), luciferase activity [1] of 80 nM and an IC50 of sCD4 for inhibition of infection of CD4+CCR5+ Cf2Th cells by recombinant HIV-1(YU2), luciferase activity [2] of 12 nM.
